A word on the Kd: it is the constant that tells how readily two partners part at equilibrium.

Data set [1] has as its system DP4 or a DP4-like activity in human serum. The data set is described as follows: Degradation of Gln1-MCP-1 in human serum in presence of DP4 inhibitor. Conditions: 9.6 μM inhibitor, 24 h, FIG. 7C. It is filed as biochemical. As for the experimental part:
(§1) For cyclization of the N-terminal glutamine residue into pyroglutamate, MCP-1 was incubated with recombinant human QC for 3 h prior to assay start. In addition, Gln^1-MCP-1 was incubated in human serum in the presence of 9.6 μM DP4 Inhibitor Isoleucyl-Thiazolidide (P32/98) for 24 h (C). The cleavage products were analyzed after 0 min, 10 min, 30 min, 1 h, 2 h, 3 h 5 h and 7 h for Gln^1-MCP-1, 0 min, 30 min, 1 h, 2 h, 3 h 5 h, 7 h and 24 h for pGlu^1-MCP-1 and 0 min, 1 h, 2 h, 3 h, 5 h, 7 h and 24 h for Gln^1-MCP-1 in combination with Isoleucyl-Thiazolidide using Maldi-TOF mass spectrometry.
(§2) Human recombinant MCP-1 carrying an N-terminal glutaminyl residue (Peprotech) was dissolved in 25 mM Tris/HCl, pH 7.6, in a concentration of 100 μg/ml. MCP-1 was either pre-incubated with recombinant human QC (0.006 mg/ml) for 3 h at 30° C. and subsequently incubated with human serum at 30° C. or incubated with human serum without addition of QC. The cleavage products were analyzed using Maldi-TOF mass spectrometry after 0 min, 10 min, 30 min, 1 h, 2 h, 3 h 5 h and 7 h for Gln^1-MCP-1 and 0 min, 30 min, 1 h, 2 h, 3 h 5 h, 7 h and 24 h for pGlu^1-MCP-1.

A further data set addresses recombinant human DP4 (Homo sapiens, UniProt P27487). As to the kind of experiment: N-terminal degradation of human MCP-2, MCP-3 and MCP-4 by DP4, Maldi-TOF mass spectrometry. Conditions: for proteolytic degradation by DP4 with N-terminal pGlu-residue: pre-incubated with recombinant human QC 3 h, then DP4; for truncation by DP4 of uncyclized variants starting with N-terminal glutamine: recombinant human DP4, 30° C. It is filed as in vitro ADME. On the procedure: Resulting DP4 cleavage products were analyzed using Maldi-TOF mass spectrometry after 0 min, 15 min, 30 min, 1 h, 2 h, 4 h and 24 h.
MCP-3 was either pre-incubated with recombinant human QC (0.0006 mg/ml) for 3 h at 30° C. and subsequently incubated with recombinant human DP4 (0.00012 mg/ml) at 30° C. or incubated with recombinant human DP4 (0.00012 mg/ml) without prior QC application. Resulting DP4 cleavage products were analyzed using Maldi-TOF mass spectrometry after 0 min, 15 min, 30 min, 1 h, 2 h, 4 h and 24 h.
MCP-4 was either pre-incubated with recombinant human QC (0.0006 mg/ml) for 3 h at 30° C. and subsequently incubated with recombinant human DP4 (0.00006 mg/ml) at 30° C. or incubated with recombinant human DP4 (0.00006 mg/ml) without prior QC application. Resulting DP4 cleavage products were analyzed using Maldi-TOF mass spectrometry after 0 min, 15 min, 30 min, 1 h, 2 h, 4 h and 24 h.

The subject of the next data set is human THP-1 monocytes. As to the kind of experiment: TransWell chemotaxis assay. Type of data set: cell-based. Conditions: for influence of pGlu-formation at the N-terminus on chemotactic potency: compared to the respective glutamine-precursors, FIG. 11; for chemotactic potency of N-truncated DP4 cleavage products: truncation by 2 amino acids, FIG. 13; for MCP-1 concentrations needed to elicit the maximum response: after incubation with human DP4, with (pGlu^1) or without (Gln^1) QC pre-incubation, FIG. 12. As for the experimental part:
The chemotaxis assay was performed using 24 well TransWell plates with a pore size of 5 μm (Corning). THP-1 cells were suspended in RPMI1640 in a concentration of 1*10^6 cells/100 μl and applied in 100 μl aliquots to the upper chamber. Cells were allowed to migrate towards the chemoattractant for 2 h at 37° C. Subsequently, cells from the upper chamber were discarded and the lower chamber was mixed with 50 μl 70 mM EDTA in PBS and incubated for 15 min at 37° C. to release cells attached to the membrane. Afterwards, cells migrated to the lower chamber were counted using a cell counter system (Schärfe System). The chemotactic index was calculated by dividing cells migrated to the stimulus from cells migrated to the negative control.
MCP-1 starting with glutamine 1 (Gln^1-MCP-1) (Peprotech) was incubated with recombinant human QC to generate pGlu^1-MCP-1, or with human recombinant DP4 to generate Asp^3-MCP-1. Concentrations of 1, 5, 10, 50, 100, 500 and 1000 ng/ml of the generated MCP-1 variants were tested using the THP-1 chemotaxis assay (n=3).
MCP-1 with N-terminal glutamine (Gln^1-MCP-1) (Peprotech) was incubated with recombinant human QC and DP4 (Gln^1-MCP-1+QC+DP4), human recombinant DP4 alone (Gln^1-MCP+DP4) and with recombinant human QC in combination with 10 μM of QC-inhibitor 1-(3-(1H-imidazol-1-yl)propyl)-3-(3,4-dimethoxyphenyl)thiourea hydrochloride and DP4 (Gln^1-MCP-1+QC+QCI+DP4). Concentrations of 1, 5, 10, 50, 100, 500 and 1000 ng/ml of generated MCP-1 variants were tested using chemotaxis assay (n=3).
Concentrations of 1, 5, 10, 50, 100, 500 and 1000 ng/ml of a particular MCP were tested using chemotaxis assay (n=3).
For the generation of the DP4 cleavage product, the respective MCPs were incubated with human recombinant DP4 at a 1:100 dilution for 2 h at 30° C. prior to assay. Concentrations of 1, 5, 10, 50, 100, 500 and 1000 ng/ml of a particular MCP were tested using chemotaxis assay (n=3).

In another data set the target is MCP-1 receptors (Homo sapiens, UniProt P41597). To be noted: cited from earlier work.
Sequence of MCP-1 receptors (P41597 whole entry): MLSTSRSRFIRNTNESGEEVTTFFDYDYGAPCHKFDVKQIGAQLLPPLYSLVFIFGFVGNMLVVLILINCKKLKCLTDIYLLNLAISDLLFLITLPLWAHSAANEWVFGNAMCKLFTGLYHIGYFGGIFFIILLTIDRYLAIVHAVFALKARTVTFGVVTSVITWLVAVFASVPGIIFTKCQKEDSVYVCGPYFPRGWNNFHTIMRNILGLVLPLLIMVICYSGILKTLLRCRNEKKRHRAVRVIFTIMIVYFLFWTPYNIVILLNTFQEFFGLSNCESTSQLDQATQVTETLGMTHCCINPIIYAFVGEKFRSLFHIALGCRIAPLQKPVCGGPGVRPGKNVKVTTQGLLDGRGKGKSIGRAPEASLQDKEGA
Data set [2] can be described thus: N-terminal degradation of human MCP-1 in human serum, Maldi-TOF mass spectrometry. Type of data set: in vitro ADME. On the procedure:
as §1
Matrix-assisted laser desorption/ionization mass spectrometry was carried out using the Voyager De-Pro (Applied Biosystems, Darmstadt) with a linear time of flight analyzer. The instrument was equipped with a 337 nm nitrogen laser, a potential acceleration source and a 1.4 m flight tube. Detector operation was in the positive-ion mode. Samples (5 μl) were mixed with equal volumes of the matrix solution. For matrix solution sinapinic acid was used, prepared by solving 20 mg sinapinic acid (Sigma-Aldrich) in 1 ml acetonitrile/0.1% TFA in water (1/1, v/v). A small volume (≈1 μl) of the matrix-analyte-mixture was transferred to a probe tip.
as §2

[3] abbreviates: incubation with human serum without QC pre-incubation, FIG. 7A.

Sequence of recombinant human DP4 (P27487 whole entry, the tested form may be a part): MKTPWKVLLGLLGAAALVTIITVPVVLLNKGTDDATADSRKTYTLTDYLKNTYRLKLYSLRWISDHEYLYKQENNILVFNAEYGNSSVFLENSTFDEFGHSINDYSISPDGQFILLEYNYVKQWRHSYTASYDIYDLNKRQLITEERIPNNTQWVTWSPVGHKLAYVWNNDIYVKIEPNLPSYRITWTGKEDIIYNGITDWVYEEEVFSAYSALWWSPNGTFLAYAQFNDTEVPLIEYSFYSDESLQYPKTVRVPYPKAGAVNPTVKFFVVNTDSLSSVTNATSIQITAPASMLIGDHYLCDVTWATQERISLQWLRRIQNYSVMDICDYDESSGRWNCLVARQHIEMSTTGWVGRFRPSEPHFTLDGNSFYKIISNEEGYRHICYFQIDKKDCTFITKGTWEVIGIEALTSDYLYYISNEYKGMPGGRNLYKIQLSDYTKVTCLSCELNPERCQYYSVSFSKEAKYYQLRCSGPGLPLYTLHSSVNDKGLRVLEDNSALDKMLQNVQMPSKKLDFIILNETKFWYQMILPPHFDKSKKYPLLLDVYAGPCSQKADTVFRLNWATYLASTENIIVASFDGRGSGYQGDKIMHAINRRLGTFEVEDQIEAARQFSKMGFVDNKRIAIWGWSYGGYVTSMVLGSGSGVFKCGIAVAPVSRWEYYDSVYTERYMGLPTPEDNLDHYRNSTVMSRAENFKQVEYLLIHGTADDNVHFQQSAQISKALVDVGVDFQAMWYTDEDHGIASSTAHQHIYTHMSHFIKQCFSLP

Regarding `CCC(C)C(N)C(=O)N1CCSC1` (stereo not shown) [Isoleucyl-Thiyzolidide, Isoleucyl-Thiazolidide], the “N-terminal degradation of MCP-1 in serum” value in data set [1] was “prevents the N-terminal degradation”.

On to “MCP-4: Human recombinant MCP-4 (SEQ ID NO: 13) carrying an N-terminal glutaminyl residue (Peprotech)”, for which, in the data set with recombinant human DP4, the “proteolytic degradation by DP4 with N-terminal pGlu-residue” value is reported as “protects” and the “truncation by DP4 of uncyclized variants starting with N-terminal glutamine” value (from here on “truncation by DP4”) is “readily truncated”. In the data set on human THP-1 monocytes, the “influence of pGlu-formation at the N-terminus on chemotactic potency” value is “slightly increases” and the “chemotactic potency of N-truncated DP4 cleavage products” value is “partial inactivation”.

With “MCP-1, 1-10: peptide corresponding to MCP-1, 1-10 (QPDAINAPVT; UniProt P13500 24-33, looked up, fragment) [reference compound]”, the receptor-binding activities result in the data set with MCP-1 receptors is listed as “lacked detectable receptor-binding activities”.

On to “MCP-3: Human recombinant MCP-3 (SEQ ID NO: 12) carrying an N-terminal glutaminyl residue (Peprotech)”, for which, in the data set with recombinant human DP4, the “proteolytic degradation by DP4 with N-terminal pGlu-residue” value was “protects” and the “truncation by DP4” value is on record as “readily truncated”. Also, in the data set with human THP-1 monocytes, the “influence of pGlu-formation at the N-terminus on chemotactic potency” value was “no influence” and the “chemotactic potency of N-truncated DP4 cleavage products” value is recorded as “partial inactivation”.

Turning to “pGlu1-MCP-1: human MCP-1 with N-terminal pyroglutamic acid, generated by incubation of Gln1-MCP-1 with recombinant human QC”, the “degradation in human serum” value in data set [2] (pre-incubation with human QC, chosen time-frame (24 h) and dilution of the serum, FIG. 7B) is listed as “no degradation”. Also, the “MCP-1 concentrations needed to elicit the maximum response” value with human THP-1 monocytes lay within 50 to 100 ng/mL.

Take “MCP-1: monocyte chemotactic protein-1, CCL2; form in the cited binding study not stated”: in the data set with MCP-1 receptors, the Kd is 2.8 nM.

Turning to “Gln1-MCP-1: Recombinant human MCP-1(1-76) (SEQ ID NO: 1) starting with an N-terminal glutamine (Peprotech)”, in data set [2] (setting [3]), the “final ratio, full-length pGlu1-MCP-1” value was roughly 40% and the “final ratio, truncated Asp3-MCP-1” value is “approx. 60%”. Further, in the data set with human THP-1 monocytes, the “MCP-1 concentrations needed to elicit the maximum response” value was 500 to 1000 ng/mL.

As for “MCP-2: Human recombinant MCP-2 (SEQ ID NO: 11) carrying an N-terminal glutaminyl residue (Peprotech)”, the “truncation by DP4” value in the data set with recombinant human DP4 was “readily truncated”. Also, in the data set with human THP-1 monocytes, the “influence of pGlu-formation at the N-terminus on chemotactic potency” value was “no influence” and the “chemotactic potency of N-truncated DP4 cleavage products” value was “partial inactivation”.

These data come from patent US20110212853A1, “NOVEL DIAGNOSTIC METHOD” (PROBIODRUG AG, priority 2010, published 2011).
